The values that follow come from US20240076389A1.

In general, EC50 refers to the concentration giving half of the maximal effect.

Test [1] deals with huMER-ECD displayed on yeast (human) (UniProt Q12866). The test can be described thus: yeast surface display ELISA, non-denatured yeast, goat anti-human F(ab')2-HRP.
Test [2] deals with cyAXL-ECD displayed on yeast. Described as above.
Test [3] deals with huTyro3-ECD displayed on yeast (human) (UniProt Q06418). Described as above.
The target in test [4] is huAXL-ECD displayed on yeast (human) (UniProt P30530). The description is as above.
In test [5] the target is mouse AXL extracellular domain (Sino cat. 51026-M08H) (mouse) (UniProt Q00993). The test can be described thus: ELISA on coated AXL ECD (100 ng/well). In general terms: An ELISA detects its analyte on a solid surface through an enzyme-linked reagent.
For test [6], the target named is recombinant human AXL extracellular domain, C-terminally His8-tagged (rhAXL-ECD) (human) (UniProt P30530). Description: ELISA on coated AXL ECD (100 ng/well).
Chain of recombinant human AXL extracellular domain, C-terminally His8-tagged (rhAXL-ECD) (human) (P30530 other isoform, or with tags, fused parts or gaps limits assumed): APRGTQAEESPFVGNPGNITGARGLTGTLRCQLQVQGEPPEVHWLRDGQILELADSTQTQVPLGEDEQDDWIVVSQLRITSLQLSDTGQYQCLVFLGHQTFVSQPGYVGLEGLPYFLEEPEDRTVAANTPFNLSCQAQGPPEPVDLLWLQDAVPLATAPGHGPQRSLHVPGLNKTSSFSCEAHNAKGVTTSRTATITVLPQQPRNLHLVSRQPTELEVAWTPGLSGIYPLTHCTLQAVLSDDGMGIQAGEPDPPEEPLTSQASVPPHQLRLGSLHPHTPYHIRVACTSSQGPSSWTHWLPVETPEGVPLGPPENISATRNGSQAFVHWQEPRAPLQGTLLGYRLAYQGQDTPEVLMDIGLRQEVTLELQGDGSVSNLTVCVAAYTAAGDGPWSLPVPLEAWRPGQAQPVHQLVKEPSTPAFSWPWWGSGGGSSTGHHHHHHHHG

Chain of huMER-ECD displayed on yeast (human) (Q12866 21-505): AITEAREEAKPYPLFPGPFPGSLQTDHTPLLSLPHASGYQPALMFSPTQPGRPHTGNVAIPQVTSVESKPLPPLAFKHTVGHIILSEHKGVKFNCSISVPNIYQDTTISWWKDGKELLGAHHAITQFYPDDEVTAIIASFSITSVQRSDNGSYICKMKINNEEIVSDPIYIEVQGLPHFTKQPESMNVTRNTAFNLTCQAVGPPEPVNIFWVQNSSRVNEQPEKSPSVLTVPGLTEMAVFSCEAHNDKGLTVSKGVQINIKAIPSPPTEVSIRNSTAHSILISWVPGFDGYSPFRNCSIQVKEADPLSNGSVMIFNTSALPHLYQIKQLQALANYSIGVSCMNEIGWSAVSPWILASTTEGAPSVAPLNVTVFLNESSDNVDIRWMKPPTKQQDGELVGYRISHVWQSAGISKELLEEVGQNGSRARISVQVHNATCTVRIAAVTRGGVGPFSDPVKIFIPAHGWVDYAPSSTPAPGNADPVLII
Chain of huTyro3-ECD displayed on yeast (human) (Q06418 41-429): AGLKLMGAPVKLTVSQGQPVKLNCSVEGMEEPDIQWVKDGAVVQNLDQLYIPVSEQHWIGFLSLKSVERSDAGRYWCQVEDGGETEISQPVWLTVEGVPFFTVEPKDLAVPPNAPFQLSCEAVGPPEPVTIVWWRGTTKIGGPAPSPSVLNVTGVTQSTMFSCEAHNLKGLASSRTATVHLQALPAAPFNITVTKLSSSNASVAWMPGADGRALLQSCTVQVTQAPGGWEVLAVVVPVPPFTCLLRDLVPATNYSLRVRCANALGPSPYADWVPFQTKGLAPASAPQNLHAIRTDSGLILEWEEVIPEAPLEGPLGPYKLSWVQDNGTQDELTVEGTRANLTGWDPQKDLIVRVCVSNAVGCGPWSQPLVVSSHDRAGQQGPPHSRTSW
Chain of mouse AXL extracellular domain (Sino cat. 51026-M08H) (mouse) (Q00993 19-445, stated change not applied): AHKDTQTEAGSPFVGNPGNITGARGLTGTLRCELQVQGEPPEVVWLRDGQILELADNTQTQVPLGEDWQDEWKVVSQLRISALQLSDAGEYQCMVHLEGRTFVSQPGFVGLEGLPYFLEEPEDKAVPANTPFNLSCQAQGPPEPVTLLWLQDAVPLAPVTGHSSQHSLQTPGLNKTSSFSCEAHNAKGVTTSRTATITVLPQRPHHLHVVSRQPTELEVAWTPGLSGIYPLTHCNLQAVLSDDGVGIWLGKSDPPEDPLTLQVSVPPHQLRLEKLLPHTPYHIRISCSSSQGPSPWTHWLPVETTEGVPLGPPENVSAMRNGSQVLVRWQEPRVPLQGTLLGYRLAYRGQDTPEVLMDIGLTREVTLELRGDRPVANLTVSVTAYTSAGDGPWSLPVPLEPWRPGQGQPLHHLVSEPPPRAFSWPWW
Chain of huAXL-ECD displayed on yeast (human) (P30530 26-449, form in doubt): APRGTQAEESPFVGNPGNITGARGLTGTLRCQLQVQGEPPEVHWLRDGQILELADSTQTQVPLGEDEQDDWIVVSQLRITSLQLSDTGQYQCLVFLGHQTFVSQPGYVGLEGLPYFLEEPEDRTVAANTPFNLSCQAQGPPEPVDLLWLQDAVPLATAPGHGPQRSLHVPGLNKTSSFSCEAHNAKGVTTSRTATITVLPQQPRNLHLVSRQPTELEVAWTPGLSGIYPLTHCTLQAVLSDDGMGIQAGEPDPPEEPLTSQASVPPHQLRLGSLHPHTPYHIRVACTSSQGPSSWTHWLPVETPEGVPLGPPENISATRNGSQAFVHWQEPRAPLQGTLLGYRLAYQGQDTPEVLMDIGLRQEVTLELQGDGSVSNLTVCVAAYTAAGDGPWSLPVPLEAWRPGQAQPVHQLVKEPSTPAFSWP

Turning to hFC-anti-RSV (antibody), the yeast ELISA signal normalized to myc expression level is -0.001 in test [1], -0.004 in test [2], 0.059 in test [3] and 0.087 in test [4].

As to “MAB8541 (R&D Systems), commercial anti-mouse AXL mAb, clone 175128, rat IgG2A (antibody)”, the EC50 in test [5] came to 1 nM; in test [6] it was 61 nM.
